Tested on: complement
Test: G-CSF mobilization: complement activation in bone marrow
Assay type: in vivo, mice

B1: G-CSF: used for G-CSF-mediated stem cell mobilization (bone marrow transplantation) (protein, UniProt P09919 31-207, looked up)
Granulocyte …: TPLGPASSLPQSFLLKCLEQVRKIQGDGAALQEKLVSECATYKLCHPEELVLLGHSLGIPWAPLSSCPSQALQLAGCLSQLHSGLFLYQGLLQALEGISPELGPTLDTLQLDVADFATTIWQQMEELGMAPALQPTQGAMPAFASAFQRRAGGVLVASHLQSFLEVSYRVLRHLAQP
complement activation in bone marrow (G-CSF mobilization, FIG. 8A and 8B): stimulates complement activation in bone marrow with iC3b deposition on stromal cells | complement activation in bone marrow (immunoglobulin-deficient SCID mice, FIG. 9A through 9F): does not activate complement

— patent US20070042930A1, “Effect of beta-glucan on stem cell recruitment and tissue repair” (priority 2002, published 2007)
